{
  "source": "patent US12479928B2",
  "about": "“Anti-cancer peptide” (Minerva Biotechnologies Corporation, priority 2014, dated 2025)",
  "molecules": {"B1": {"name": "NME7-AB: recombinant human NME7 devoid of the DM10 domain, NDPK A and B domains, about 33 kDa monomer (protein)", "chain": "MEKTLALIKPDAISKAGEIIEIINKAGFTITKLKMMMLSRKEALDFHVDHQSRPFFNELIQFITTGPIIAMEILRDDAICEWKRLLGPANSGVARTDASESIRALFGTDGIRNAAHGPDSFASAAREMELFFPSSGGCGPANTAKFTNCTCCIVKPHAVSEGLLGKILMAIRDAGFEISAMQMFNMDRVNVEEFYEVYKGVVTEYHDMVTEMYSGPCVAMEIQQNNATKTFREFCGPADPEIARHLRPGTLRAIFGKTKIQNAVHCTDLPEDGLLEVQYFFKILDN"}},
  "key": {"[1]": {"test_system": "DU145 prostate cancer cells", "assay": "RT-PCR of CSC markers after culture in NME7-AB, DU145", "assay_type": "cell-based, human", "protocol": "FIG. 13 is a graph of RT-PCR measurements of gene expression for a variety of stem and putative cancer stem cell markers for DU145 prostate cancer cells. Cells were cultured either in traditional media or a media containing NME1 dimers (“NM23”) or NME7 (NME7-AB). Rho kinase inhibitor was not used because by passage 2, cells remained adherent.\nOvarian cancer cells, pancreatic cancer cells and melanoma cells were also cultured in NME7-AB and were transformed to a more metastatic state after as few as 3 days in culture."}, "[2]": {"target": "T1, PSMGFR peptide (MUC1* extracellular domain) (Homo sapiens, UniProt P15941)", "T1 construct": "The PSMGFR peptide bearing a C-terminal Cysteine (PSMGFR-Cys) was covalently coupled to BSA; made in house; host or cells: E. coli (NME7-AB)", "T1 sequence (P15941 1110-1154 limits assumed) 1": "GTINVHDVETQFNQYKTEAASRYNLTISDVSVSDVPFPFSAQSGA", "T1 sequence (Q9Y5B8 92-376 partner limits assumed)": "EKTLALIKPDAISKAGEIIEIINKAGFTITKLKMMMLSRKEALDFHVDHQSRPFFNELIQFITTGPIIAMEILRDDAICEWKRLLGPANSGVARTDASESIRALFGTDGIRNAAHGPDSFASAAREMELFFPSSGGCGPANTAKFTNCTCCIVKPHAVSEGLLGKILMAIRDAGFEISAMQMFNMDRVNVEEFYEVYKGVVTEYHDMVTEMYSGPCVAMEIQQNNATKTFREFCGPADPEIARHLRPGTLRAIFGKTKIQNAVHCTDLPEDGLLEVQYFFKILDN", "T1 sequence (P15941 1110-1154 limits assumed) 3": "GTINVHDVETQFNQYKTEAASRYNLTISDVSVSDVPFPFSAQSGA", "assay": "Sandwich ELISA: NME7-AB dimerizes MUC1* extra cellular domain peptide", "assay_type": "binding", "protocol": "The PSMGFR peptide bearing a C-terminal Cysteine (PSMGFR-Cys) was covalently coupled to BSA using Imject Maleimide activated BSA kit (Thermo Fisher). PSMGFR-Cys coupled BSA was diluted to 10 ug/mL in 0.1M carbonate/bicarbonate buffer pH 9.6 and 50 uL was added to each well of a 96 well plate. After overnight incubation at 4° C., the plate was washed twice with PBS-T and a 3% BSA solution was added to block remaining binding site on the well. After 1 h at RT the plate was washed twice with PBS-T and NME7, diluted in PBS-T+1% BSA, was added at different concentrations. After 1 h at RT the plate was washed 3× with PBS-T and anti-NM23-H7 (B-9, Santa Cruz Biotechnology), diluted in PBS-T+1% BSA, was added at 1/500 dilution. […] After 1 h at RT the plate was washed 3× with PBS-T and binding of NME7 was measured at 415 nm using ABTS solution (Pierce). […]\nAfter 1 h at RT the plate was washed 3× with PBS-T and HisTagged PSMGFR peptide (PSMGFR-His) or biotinylated PSMGFR peptide (PSMGFR-biotin), diluted in PBS-T+1% BSA, was added at different concentration. […] After 1 h at RT the plate was washed 3× with PBS-T and binding of PSMGFR peptide to NME7 already bound to another PSMGFR peptide (which could not signal by anti-His antibody or by streptavidin) coupled BSA was measured at 415 nm using a ABTS solution (Pierce)."}, "T47D breast cancer cells": {"test_system": "T47D breast cancer cells", "assay": "Induced transition of breast cancer cells to a more metastatic state, RT-PCR of metastatic markers", "assay_type": "cell-based, human", "protocol": "In one particular experiment, T47D human breast cancer cells were cultured in standard RPMI media for 14 days with media changes every 48 hours and passed by trypsinization when approximately 75% confluent. The cells were then plated into 6-well plates and cultured in minimal stem cell media (see Example 1) that was supplemented with 4 nM NME7-AB. Media was changed every 48 hours. By about Day 4, some cells become detached from the surface and float. Media is carefully changed so as to retain the “floaters” as these are the cells that have the highest metastatic potential as evidence by RT-PCR measurement of metastatic markers. On Day 7 or 8, the floaters are harvested and counted. Samples are retained for RT-PCR measurement.\nWe have shown that NME7-AB promotes cancerous growth and causes cancer cells to accelerate to the highly metastatic cancer stem cell (CSC) state also called tumor initiating cells (TIC). Therefore, we conclude that NME7-X1 and an NME7 cleavage product that removes the DM10 domain also promote cancerous growth and causes cancer cells to accelerate to the highly metastatic cancer stem cell (CSC) state also called tumor initiating cells (TIC). In one example, NME7-AB was added to cancer cells in a serum-free media and in the absence of any other growth factors or cytokines. […] After 10 days cells were collected and analyzed by RT-PCR for expression of molecular markers of CSCs which were elevated by 10-200-times (FIGS. 11, 12). […]\nA rho I kinase inhibitor, ROCi, ROCKi or Ri, was added to prevent the transformed cells from floating off the plate. Expression levels of various metastatic markers as well as pluripotent stem cell markers were measured for the parent cells and for the NME7-AB cultured cells.\nT47D human breast cancer cells were cultured in standard RPMI media for 14 days with media changes every 48 hours and passed by trypsinization when approximately 75% confluent. […] On Day 7 or 8, the floaters are harvested and counted. […]"}},
  "data": [
    {"molecule": "B1", "values": [
      {"measurement": "CSC marker expression after culture in NME7-AB", "setting": "[1]", "result": "dramatic increases in expression of CSC markers"},
      {"measurement": "simultaneous binding of PSMGFR peptides", "setting": "[2]", "result": "simultaneously binds to two PSMGFR peptides"},
      {"measurement": "CXCR4 up-regulation", "setting": "T47D breast cancer cells; 4 nM NME7-AB in minimal stem cell media, floaters Day 7 or 8", "result": "40-200 times"},
      {"measurement": "elevation of molecular markers of CSCs", "setting": "T47D breast cancer cells; 16 nM NME7-AB, after 10 days", "result": "10-200 times"},
      {"measurement": "increase in expression of molecular markers such as CXCR4", "setting": "T47D breast cancer cells; serum-free media, within 7-10 days", "result": "more than 100 fold"}
    ]}
  ]
}
